± gives the uncertainty stated by the source.
test: protein stability index of a GFP-peptide fusion (yeast GPS) (PSI 1-4); higher = more stable; sorted into four equal gates, so the index is relative within each strain; settings: pdr5∆
Outline: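 The protein stability index combines read frequencies across sorting gates, each weighted by its gate number and then summed. To obtain those frequencies, a pooled yeast library of GFP fusions to tiled 17-residue yeast protein peptides, on a plasmid also expressing Cherry, was grown to mid-log phase in leucine-free medium. The cells were sorted into four equal gates by GFP/Cherry ratio before plasmid amplification by PCR and Illumina sequencing.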

In order of rising protein stability index:
1. LLVGLIKTFYWLEQFLS [NUT1]  1.11 ± 0.076
2. LNSFAFELCSLGDKELW [YJR042W/NUP85]  1.32 ± 0.12
3. LRRVNARYVIATSTKVS [RPL6A]  1.34 ± 0.047
4. LPKFLTVQYVRFFWKRS [UBP6]  1.35 ± 0.035
5. LLYLRLKNIYVSADDFV [PRP8]  1.39 ± 0.054
6. LLFFNFSHSLTTILSFS [NUT1]  1.41 ± 0.034
7. LPNIYPSTRCKLKLLRM [RPT2]  1.43 ± 0.049
8. LTVSIKIALMNIPKPLN [RGR1]  1.43 ± 0.057
9. LLGNCYSLRLINKEIFH [SRB8]  1.46 ± 0.094
10. LMRSCFYLMVSSLSFGP [YJL039C/NUP192]  1.48 ± 0.04
11. LPKVRIRTRRAAELLDK [DIS3]  1.48 ± 0.088
12. LQFKSIREIDVAGGKKA [RPS7A]  1.49 ± 0.11
13. LSIRLTNQLKSLKGLQS [RPN8]  1.49 ± 0.16
14. LLNRIPRMYHIGLRQFQ [POP1]  1.51 ± 0.077
15. LLVQSLNDMVLELKENY [NNF1]  1.52 ± 0.1
16. LPILPIQRLRLLREKQR [YOR098C/NUP1]  1.55 ± 0.062
17. LQRKDYTSIVQCCEFMT [YML103C/NUP188]  1.62 ± 0.048
18. LRLLEVTDDDRLWLKKV [POP8]  1.68 ± 0.072
19. LPNQFPLKIHRTPYLTS [SWI1]  1.72 ± 0.045
20. LTAIPILLEPIYEVDIT [SNU114]  1.75 ± 0.041
21. LLPFVKGNVGFVFTNEP [RPP0]  1.77 ± 0.26
22. LSLMLESPNYCNALIHI [SRB4]  1.78 ± 0.035
23. LLTVTPGPRLLYENIAS [RPN10]  1.92 ± 0.054
24. LSGGQKTVCAIALILAI [SMC3]  1.94 ± 0.19
25. LSVEIGVLTDISSLIGG [NUT1]  1.95 ± 0.11
26. LSFSWAILLIINLTQTY [NUT1]  1.96 ± 0.069
27. LNDLVESSFIEIDDTEA [BRR2]  2 ± 0.043
28. LNRSHFATTKAECISLI [ECM29]  2 ± 0.051
29. LNVQVWHIEETGEWFSS [ITC1]  2.03 ± 0.05
30. LSMRFQRETSGMIVISM [SRB8]  2.05 ± 0.062
31. LNDVVSFLFSAIPLQQV [SWI1]  2.08 ± 0.039
32. LLHEMTQTYMQMIELNR [GRR1]  2.11 ± 0.051
33. LTSSKSVIVSQFCAFDS [SIN4]  2.14 ± 0.06
34. LSKINAIQLDYSTANEY [RPN3]  2.15 ± 0.066
35. LNLEQVTLNKYCSGNIY [YJL039C/NUP192]  2.16 ± 0.048
36. LNITTVFSHAQTAVTCE [RPS27A]  2.21 ± 0.047
37. LNDRKVLFAAYKVEHPF [RPB11]  2.23 ± 0.058
38. LTFHTLKKANIIYHTTF [YLR018C/POM34]  2.25 ± 0.038
39. LNECLKTIQINNEKVVQ [YML031W/NDC1]  2.27 ± 0.073
40. LLSFVLGVVFGRGGSGW [YML031W/NDC1]  2.28 ± 0.067
41. LSLTAFTKNEEKLLKEL [ITC1]  2.29 ± 0.072
42. LSCEKITHYAVRGGNIE [RRI1]  2.3 ± 0.078
43. LSAPLSKELRAQYGIKA [RPL26A]  2.31 ± 0.12
44. LPDEKSDAMSIDEEDKD [YCG1]  2.36 ± 0.11
45. LPVMESLDSCTAAFTAM [YJR042W/NUP85]  2.37 ± 0.066
46. LQQKQRDLILKKGEYAR [SMC3]  2.42 ± 0.14
47. LTYAQQQLNKQRQDFER [SNF6]  2.44 ± 0.071
48. LLSLINSTHLLPLQPIE [SNF12]  2.46 ± 0.05
49. LLQSSIINKLIHIQSKE [POP3]  2.5 ± 0.044
50. LQSNSKLASTLEKISSS [SMC4]  2.52 ± 0.035
51. LLTAKHGMTLRESFEDN [RPO21]  2.56 ± 0.087
52. LNEKFQELRKKVNPNIM [SMC2]  2.61 ± 0.27
53. LMRTFLYTLAQETEGTN [SIR3]  2.63 ± 0.098
54. LMKCCHEAYSIIEKITD [RRP45]  2.68 ± 0.09
55. LQYTALTGSPNNPLVQK [ARP7]  2.7 ± 0.064
56. LSSHSSTNSNSKPSTAS [RPN4]  2.71 ± 0.082
57. LSDYNIQKESTLHLVLR [RPS31]  2.72 ± 0.051
58. LQGISTLRPRQYATVSK [RPL34A]  2.75 ± 0.13
59. LLVDQKQLNSLRRSGQI [SMD1]  2.79 ± 0.054
60. LSSAGAKSTVETFISSM [RIP1]  2.8 ± 0.13
61. LSISVPSDVNIDVMKSQ [SNU114]  2.84 ± 0.057
62. LRNYLTPNVREEKQKSY [PUP1]  2.88 ± 0.15
63. LNTLLVTSADSNLKISL [SWI1]  2.9 ± 0.065
64. LQETLNKSTSSEAEYSK [YIL149C/MLP2]  2.9 ± 0.081
65. LQKKVASILLALTQMDQ [RPB3]  2.9 ± 0.14
66. LNRFNFQNTNTRSALKL [QCR2]  2.91 ± 0.069
67. LLNTDHTLDPSLLESGS [RPO21]  2.94 ± 0.099
68. LSIAIVGKDTPFTIYDG [PRE5]  2.94 ± 0.054
69. LSNFNADINLEESIRES [SIR3]  2.95 ± 0.12
70. LPKYQTIQYDPPETKLP [SNF5]  2.96 ± 0.046
71. LSSGENRYAFSQPTNST [SMC4]  2.96 ± 0.11
72. LMMVEKVPDSTYDMVGG [RPT6]  2.98 ± 0.071
73. LRWFELKPKLYYEQFRP [SIR3]  2.98 ± 0.067
74. LRKSELEYYAMLSKTKV [RPL30]  3.01 ± 0.078
75. LSKMENVNLDDYPDDSG [NAS6]  3.02 ± 0.11
76. LSNLSKDIKANLSSNVN [YCS4]  3.03 ± 0.068
77. LSQSSSYLETLTALGKE [MED2]  3.04 ± 0.099
78. LSTTPTKSNRRVSHSDT [SIR4]  3.06 ± 0.26
79. LLEQDTSTEKLYKLNDK [PRE9]  3.08 ± 0.07
80. LNELHPTLPTNHNKTKL [PRP8]  3.08 ± 0.062
81. LSEEKEVIFTDVLKSQA [MCD1]  3.09 ± 0.23
82. LVADGVFYAELNEFFTR [RPS3]  3.1 ± 0.12
83. LNLTGPKVPEDIYKSHL [RPN1]  3.11 ± 0.11
84. LPNEMSQNDGFVIIRGS [RPO31]  3.13 ± 0.16
85. LSNSNRFELHGDMTNSD [REC8]  3.13 ± 0.16
86. LLPQWDDDQIESLKKSP [ARP9]  3.15 ± 0.061
87. LMYSITFHHHGRQTVLI [SRB2]  3.18 ± 0.071
88. LPSGVLSRGDDEVTIRR [SMC3]  3.25 ± 0.12
89. LQDELKELQLEKESVEK [SMC3]  3.25 ± 0.21
90. LNESRSQHKKILEELDF [SMC3]  3.26 ± 0.098
91. LMISPKDEETTEKARLI [RRI2]  3.27 ± 0.18
92. LNDMNTEISGLKNVNKR [SMC3]  3.27 ± 0.072
93. LNELETLIKKKQDEKKS [SMC2]  3.27 ± 0.092
94. LNSYWVNQDSTYKYFEV [RPL15A]  3.27 ± 0.076
95. LQRASSKMGAPWCVKPE [ITC1]  3.29 ± 0.078
96. LNDTTEKSKALESEIAS [SMC2]  3.34 ± 0.14
97. LLQVNKTFCEDPFSDVD [GRR1]  3.35 ± 0.051
98. LSLKRTLTDILEDELYH [RPN4]  3.52 ± 0.11
99. LLRRLKKDVEKELPDKV [SNF2]  3.67 ± 0.24

Source: the supplement of paper PMC9732359
